Biological target: Type 4 LDH (BL105A_0985), aromatic lactate dehydrogenase (ALDH) of B. longum ssp. longum 105-A (Bifidobacterium longum ssp. longum 105-A) (UniProt Q8G593)
Assay: SEC; native molecular mass of the purified recombinant enzyme estimated by size exclusion chromatography (Supplementary Fig. 7b); dimer of the 33.9 kDa chain

stoichiometry N: 2
Substance: Type 4 LDH (BL105A_0985), aromatic lactate dehydrogenase (ALDH) of B. longum ssp. longum 105-A (from UniProt Q8G593 1-545) (enzyme)

— article PMC8556157
